Reference: patent US20230181748A1, “MEANS AND METHODS FOR THE TREATMENT OF PATHOLOGICAL AGGREGATION” (priority 2020, published 2023)

Tests used:
[1] = molecular target: T1, Aβ aggregates (Homo sapiens, UniProt P05067); experiment: Aβ biosensor screening assay; type: cell-based; details: for capping activity of single capping sequence across all hetero-tandem peptides: analysis of all tandems containing the single sequence (FIG. 22); for relative number of cells positive for induced Aβ aggregation (seeding capacity of Aβ seeds): 100 nM Aβ aggregates on cells, concentration range of capping peptide
T1 construct: mixed with preformed, sonicated Aβ aggregates (2 μM)
Description: Hetero-tandem capping peptides depicted in Table 5 were dissolved in DMSO, filtered and mixed with preformed, sonicated Aβ aggregates (2 μM). This mixture was incubated for approx. 4 hours and transfected into Aβ biosensor cells. Aβ biosensor cells stably express soluble Aβ-mCherry and Aβ aggregation can be induced by transfecting preformed Aβ aggregates in these cells (FIG. 17). The final concentration of Aβ aggregates on the cells is 100 nM and a concentration range of capping peptides was used. In other words, the condition in which no seeds are added is shown as 0, while the condition in which 100 nM Aβ aggregates are added (without capping peptides) is shown as 1.

[2] = molecular target: T2, Aβ fibrils (Homo sapiens, UniProt P05067); experiment: in vitro Aβ seeding aggregation assay (Th-T); type: biochemical; details: fibrils 10 μM preincubated with 50 μM capping peptide approx. 4 hours; 10% added to 10 μM monomeric Aβ
T2 construct: mixed with preformed, sonicated Aβ aggregates (2 μM)
Description: Capping peptides from Table 6 were freshly dissolved in DMSO (stock concentration 1 mM) and filtered before the assay. 1 μL peptide capping solution was mixed with 19 μL preformed, sonicated Aβ fibrils (stock concentration 10 μM). As such, this mixture contained 10 μM Aβ fibrils and 50 μM capping peptide and was incubated for approx. 4 hours. Next, freshly dissolved monomeric Aβ was prepared by separation on a column. This monomeric Aβ (final concentration 10 μM) was mixed with 10% of the Aβ fibrils-peptide mixture and Th-T was added to monitor aggregation.

[3] = molecular target: Tau aggregates (Homo sapiens, UniProt P10636); experiment: hetero-dimeric tandem capping peptide screen, Tau biosensor cell line; type: cell-based; details: 625 nM capping peptide, 50 nM Tau seeds, 24 hours
[4] = molecular target: T3, Sup35-NM aggregates (Saccharomyces cerevisiae, UniProt P05453); experiment: hetero-dimeric tandem capping peptide screen, NM biosensor cell line; type: cell-based; details: 625 nM capping peptide, 50 nM NM seeds, 24 hours
T3 sequence (P05453 1-253 limits assumed): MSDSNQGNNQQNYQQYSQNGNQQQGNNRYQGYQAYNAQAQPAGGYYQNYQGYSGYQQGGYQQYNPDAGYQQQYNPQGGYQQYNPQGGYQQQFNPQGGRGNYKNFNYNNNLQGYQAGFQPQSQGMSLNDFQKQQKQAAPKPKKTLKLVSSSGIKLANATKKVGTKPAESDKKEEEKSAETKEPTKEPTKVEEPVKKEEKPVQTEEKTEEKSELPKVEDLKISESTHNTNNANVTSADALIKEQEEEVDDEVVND

[5] = molecular target: T4, preformed tau aggregates (Homo sapiens, UniProt P10636); experiment: tau biosensor seeding assay; type: cell-based; details: 20 hours after transfection; for fraction of cells with green spots (induced tau aggregation) / fraction of cells with red spots (exogenous preformed tau aggregates): single concentration 500 nM on cells, 200 nM preformed tau aggregates
Description: The 33 different non-natural molecules (with a final concentration of 10 μM) were mixed with preformed (sonicated) tau aggregates (with a final concentration of 4 μM). The preformed tau aggregates are labeled with a far-red atto-633 dye to monitor the efficiency of cellular uptake and degradation. After an incubation of 6 hours the resulting non-natural molecule—tau aggregate mixture was transfected in tau biosensor cells (described in Holmes et al (2014) Proc Natl Acad Sci USA. 111(41): E4376-E4385). The tau biosensor cell line is a monoclonal FRET biosensor HEK293T cell line stably expressing both the tau repeat domain (RD) fused to the fluorescent protein CFP and the tau repeat protein fused to the fluorescent protein YFP. Without the addition of preformed tau seeds, the biosensor cells stably express diffuse tau (soluble). However, exposure to exogenous preformed tau aggregates induces tau aggregation, generating a FRET signal with the CFP-YFP pair, intensifying the fluorescent signal in the tau inclusions. The FRET signal allows to distinguish the tau aggregate formation from the monomeric background. The use of phospholipids (e.g. lipofectamine—Source: Thermofisher) for the transfection of exogenous tau aggregates maximizes the aggregate inducing capacity.
The final peptide concentration of the non-natural molecules applied on the cells is 500 nM and the final concentration of preformed tau aggregates is 200 nM. 20 hours after transfection cells were fixed and two readouts were used to quantify the activities of the non-natural molecules: • determination of the fraction of cells with green spots: these are the cells that have induced tau aggregation. • determination of the fraction of cells with red spots: these are the cells that are positive for preformed tau aggregates.
In this example non-natural molecules of the invention were generated based on the sequences of capping peptides CAP1_TR and HET (sequences depicted in column 2 in Table 2). A tau biosensor seeding assay was performed with a concentration range of peptides. Thus, the assay is the same as described in example 2 but now a range of concentrations of capping peptides and non-natural molecules comprising the capping peptides were used to incubate with preformed tau aggregates. FIGS. 6 and 7 depict the final concentration of the peptides and derived non-natural molecules applied on the cells (see FIGS. 6 and 7).

[6] = molecular target: T4, preformed tau aggregates; experiment: spreading of tau pathology in hTau[P301L] mice; type: in vivo; details: tau aggregates pretreated 6 hours, injected in hippocampus of hTau[P301L] mice; nine weeks; vs vehicle
Description: In an alternative transgenic murine model preformed tau aggregates are pretreated with the non-natural molecule (SEQ ID NO: 22) and after an incubation of 6 hours, this preformed mixture is injected into the hippocampus of young hTau^[P301L] mice (see Kent BA et al (2017) Brain Behay. 8(1) e00896), which haven't developed any tau pathology yet. Nine weeks after injection mice are sacrificed. Immunohistochemical (IHC) quantification of AT8-positive inclusions in the ipsilateral (injection site) and contralateral hippocampus (opposite site) is conducted. Preformed tau aggregates pretreated with a buffer serve as a control vehicle. We observe that the level of tau pathology spread to the contralateral hippocampus is reduced when the non-natural molecule depicted in SEQ ID NO: 22 is applied as compared to the vehicle.

[7] = molecular target: T4, preformed tau aggregates; experiment: Microscale Thermophoresis (MST) with preformed tau aggregates; type: binding
Description: To measure the affinity of the capping peptides, and non-natural molecules derived thereof, with full length tau, we performed Microscale Thermophoresis (MST, Monolith NT.Automated) experiments. Briefly, atto-633-labeled tau monomers or atto-633-labeled preformed tau aggregates were mixed with a concentration range of capping peptides, and non-natural molecules derived thereof, and MST measurement were performed.

T4 sequence (P10636 1-441 isoform P10636-8): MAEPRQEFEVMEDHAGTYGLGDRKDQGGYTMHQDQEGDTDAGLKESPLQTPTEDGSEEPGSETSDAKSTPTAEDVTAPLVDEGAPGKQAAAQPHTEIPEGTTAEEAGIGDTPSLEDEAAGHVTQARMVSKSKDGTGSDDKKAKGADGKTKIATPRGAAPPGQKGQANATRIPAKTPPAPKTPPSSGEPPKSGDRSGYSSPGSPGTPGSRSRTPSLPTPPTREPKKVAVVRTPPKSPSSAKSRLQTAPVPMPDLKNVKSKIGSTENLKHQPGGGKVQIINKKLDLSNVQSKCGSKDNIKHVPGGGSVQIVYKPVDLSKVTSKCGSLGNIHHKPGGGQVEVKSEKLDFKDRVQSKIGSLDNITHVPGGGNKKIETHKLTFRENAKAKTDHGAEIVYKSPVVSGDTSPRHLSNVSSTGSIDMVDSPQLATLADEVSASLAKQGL
Tau aggregates, sequence (P10636 1-441 isoform P10636-8): as above
T1 sequence (P05067 672-713 limits assumed): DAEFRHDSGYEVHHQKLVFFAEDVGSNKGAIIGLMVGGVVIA
T2 sequence (P05067 672-713 limits assumed): as above

KLWFFA (Capping peptide)
capping activity of single capping sequence across all hetero-tandem peptides [1]: score well at the highest concentrations

MVWGVVGSKLWFFA (Capping peptide) [AbCAP3]
seeding capacity of preformed, sonicated Aβ fibrils (Th-T aggregation) [2]: clear effect on the seeding capacity

MVWGVVGSKWVFFA (Capping peptide) [AbCap 4]
relative number of cells positive for induced Aβ aggregation (seeding capacity of Aβ seeds) [1]: concentration-dependent effect
seeding capacity of preformed, sonicated Aβ fibrils (Th-T aggregation) [2]: clear effect on the seeding capacity

MVWGVV (Capping peptide)
capping activity of single capping sequence across all hetero-tandem peptides [1]: score well at the highest concentrations

VQWINKGSVQMVYK (Capping peptide) [CAP_1E]
fraction of cells with induced aggregates, normalized [3]: most performant peptides
specificity for tau aggregation (a-specific effects in Sup35-NM biosensor line) [4]: specific for inhibiting tau aggregation

WQIVYKGSVWMINKGSGSNLLRLTGW (HET_JAV) [HET-JAV]
fraction of cells with green spots (induced tau aggregation) [5]: reduced tau aggregation
fraction of cells with red spots (exogenous preformed tau aggregates) [5]: reduction in exogenous preformed tau aggregates
level of tau pathology spread to the contralateral hippocampus (AT8-positive inclusions, IHC) [6]: reduced

MVWGVVGSKLKFFA (Capping peptide) [AbCAP_2]
seeding capacity of preformed, sonicated Aβ fibrils (Th-T aggregation) [2]: clear effect on the seeding capacity

GWVVIAGSKLKFFA (Capping peptide) [AbCAP19]
seeding capacity of preformed, sonicated Aβ fibrils (Th-T aggregation) [2]: clear effect on the seeding capacity

VQWINKGSWQIVYK (Capping peptide) [CAP_1A]
fraction of cells with induced aggregates, normalized [3]: most performant peptides
specificity for tau aggregation (a-specific effects in Sup35-NM biosensor line) [4]: specific for inhibiting tau aggregation

WQIVYKGSVWMINKGSGSVKKDQGSKFERQ (HET_CMA2) [HET-CMA2]
fraction of cells with green spots (induced tau aggregation) [5]: reduced tau aggregation
fraction of cells with red spots (exogenous preformed tau aggregates) [5]: reduction in exogenous preformed tau aggregates

EQIINKGSFQIVYK (Capping peptide) [CAP_4D]
fraction of cells with induced aggregates, normalized [3]: most performant peptides
specificity for tau aggregation (a-specific effects in Sup35-NM biosensor line) [4]: specific for inhibiting tau aggregation

MVGGVKGSKWVFFP (Capping peptide) [AbCap 11]
relative number of cells positive for induced Aβ aggregation (seeding capacity of Aβ seeds) [1]: effect at the highest concentrations

WQIVYKGSVWMINKGSGSKFERQKILDQRFFE (HET_CMA1) [HET-CMA1]
fraction of cells with green spots (induced tau aggregation) [5]: reduced tau aggregation
fraction of cells with red spots (exogenous preformed tau aggregates) [5]: reduction in exogenous preformed tau aggregates

RWQIVYKEGSRWQIVYKR [CAP1_TR]
fraction of cells with red spots (exogenous tau aggregates; tau aggregate degradation) ([5]; concentration range of peptide, tau aggregates pre-treated 6 hours): slight reduction in cells positive for red spots in the highest concentration

MVGGPVGSKLKFFA (Capping peptide) [AbCap 14]
relative number of cells positive for induced Aβ aggregation (seeding capacity of Aβ seeds) [1]: effect at the highest concentrations

WQIVYKGSVWMINK [HET]
fraction of cells with green spots (induced tau aggregation) [5]: reduced tau aggregation
fraction of cells with red spots (exogenous preformed tau aggregates) [5]: reduction in exogenous preformed tau aggregates
affinity for tau aggregates compared to tau monomers (MST) ([7]; aggregates versus monomers): higher affinity for tau aggregates compared to tau-monomers
affinity for tau aggregates (MST) ([7]; atto-633-labeled preformed tau aggregates, concentration range): measured affinities are significantly higher compared to CAP1_TR variants
